One molecule from patent US20110207628A1 can be followed below.

The target in assay [1] is FLAG-tubby-F (full-length mouse tubby with N-terminal FLAG tag) (mouse) (UniProt P50586). Put plainly: clonal phage on immobilized FLAG-tubby-F, plaque assay.
For assay [2], the target named is tubby-N (N-terminus of mouse tubby, 1M-242P), GST-free (mouse) (UniProt P50586). The assay can be described thus: clonal phage on immobilized tubby-N, plaque assay.
tubby-N (N-terminus of mouse tubby, 1M-242P), GST-free (mouse), sequence (P50586 1-242): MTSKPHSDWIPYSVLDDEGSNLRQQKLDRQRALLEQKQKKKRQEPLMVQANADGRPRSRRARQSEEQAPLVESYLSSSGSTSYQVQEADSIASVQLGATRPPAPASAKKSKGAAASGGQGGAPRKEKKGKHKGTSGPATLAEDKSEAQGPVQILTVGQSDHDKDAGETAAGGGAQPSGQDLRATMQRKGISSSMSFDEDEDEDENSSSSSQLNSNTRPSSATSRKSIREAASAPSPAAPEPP

FLAG-tubby-F (full-length mouse tubby with N-terminal FLAG tag) (mouse), sequence (P50586 other isoform, or with tags, fused parts or gaps): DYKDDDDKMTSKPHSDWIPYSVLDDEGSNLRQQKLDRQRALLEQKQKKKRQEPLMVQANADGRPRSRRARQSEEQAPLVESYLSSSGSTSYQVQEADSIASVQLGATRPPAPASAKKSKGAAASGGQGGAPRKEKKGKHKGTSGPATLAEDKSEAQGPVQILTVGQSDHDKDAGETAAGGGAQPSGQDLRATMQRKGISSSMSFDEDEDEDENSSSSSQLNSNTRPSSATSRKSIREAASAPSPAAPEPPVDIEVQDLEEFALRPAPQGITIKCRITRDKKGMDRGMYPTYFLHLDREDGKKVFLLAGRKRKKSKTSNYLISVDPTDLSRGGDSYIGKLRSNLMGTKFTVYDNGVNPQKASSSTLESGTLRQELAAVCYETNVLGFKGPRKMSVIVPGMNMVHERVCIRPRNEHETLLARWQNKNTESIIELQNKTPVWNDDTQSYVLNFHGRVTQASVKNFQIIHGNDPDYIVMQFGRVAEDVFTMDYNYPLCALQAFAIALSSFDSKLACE

B1: Regulated endocrine-specific protein 18 (Resp18) 68V-134K, phage clone (protein, mouse, UniProt P47939 68-134, looked up)
chain: VPEGMFWADDIAYELMTKKVEHLSRLHPQYPCRKDMKAVSPTANAGVRSKQEEKLQLLSPQKSPTVK
As to B1, the Binding to tubby-F (binding specificity to FLAG-tubby-F vs. to GFP-FLAG) in assay [1] is 4.8 X (fold). Also, the Binding to tubby-N (binding specificity of clonal phage vs. control phage) in assay [2] is 10.3 X (fold).
